Key:
[1] = test system: liver of a WAG/Rji rat; conditions: 400 nmol/kg i.v., five minutes post injection, WAG/Rji rat bearing CC531 colon carcinoma
Method: The rats were orthopically injected with 1×10^6 syngenic colon carcinoma cells (CC531 cells) 10 days prior to the measurements. At the day of measurement the rats received the peptide in a concentration of 400 nmol/kg body weight. During the experiments the rats were anaesthetised by isoflurane and kept at 37° C.

[2] = Stability in the serum; assay type: in vitro ADME; conditions: 37° C., non-inactivated human serum from healthy donors, over the indicated period
Method: The detection of degradation products was conducted by purification of the peptides by using HPLC affinity chromatography and subsequent radioactivity determination was performed on a gamma counter at the indicated time points. The correct mass of the radioactive peak fractions eluted from the column was confirmed by mass spectrometry (data not shown).

CCCCCCCCCCCCCCCCCC(=O)N[C@@H](CCCCNC(=O)CN1CCN(CC(=O)O)CCN(CC(=O)O)CCN(CC(=O)O)CC1)C(=O)N[C@@H](CCCCNC(=O)CN1CCN(CC(=O)O)CCN(CC(=O)O)CCN(CC(=O)O)CC1)C(=O)N[C@@H](CCCCNC(=O)CN1CCN(CC(=O)O)CCN(CC(=O)O)CCN(CC(=O)O)CC1)C(=O)N[C@@H](CC(N)=O)C(=O)N[C@@H](CC(C)C)C(=O)N[C@@H](CO)C(=O)N[C@H](C(=O)N[C@@H](CO)C(=O)N[C@@H](CC(N)=O)C(=O)N1CCC[C@H]1C(=O)N[C@@H](CC(C)C)C(=O)NCC(=O)N[C@@H](Cc1ccccc1)C(=O)N[C@@H](Cc1ccccc1)C(=O)N1CCC[C@H]1C(=O)N[C@@H](CC(=O)O)C(=O)N[C@@H](Cc1c[nH]cn1)C(=O)N[C@@H](CCC(N)=O)C(=O)N[C@@H](CC(C)C)C(=O)N[C@@H](CC(=O)O)C(=O)N1CCC[C@H]1C(N)=O)[C@@H](C)O
enrichment in the liver (PET image) [1]: Specific enrichment
degradation in non-inactivated human serum (HPLC, gamma counter) [2]: Only radioactive decay but no cleavage was observed

— patent US10363323B2, “Hydrophobic modified peptides for liver specific diagnosis” (RUPRECHT-KARLS-UNIVERSITAT HEIDELBERG, priority 2011, dated 2019)
